According to the RNAGym collection of RNA variant scans (doi:10.7554/elife.80360):

B1: HDV Ribozyme (parent)
chain: GGCCGGCAUGGUCCCAGCCUCCUCGCUGGCGCCGGCUGGGCAACAUUCCGAGGGGACCGUCCCCUCGGUAAUGGCGAAUGGGACCCA

Variants of: B1
Assay: self-cleavage, relative activity (ratio to wild type); higher = more cleavage; co-transcriptional

| Variant | self-cleavage |
| --- | --- |
| G38C C63G | 0.287 |
| G38C C63A | 0.332 |
| G38U G68A | 0.163 |
| G38C A83G | 0.201 |
| G38C A83U | 0.0361 |
| G38C A83C | 0.107 |
| G38C C49A | 0.237 |
| G38A C58A | 0.115 |
| G38A C58G | 0.141 |
| G38U C63A | 0.159 |
| G38U C63G | 0.0978 |
| G38U C63U | 0.24 |
| U37G U46C | 0.128 |
| G38U G76A | 0.145 |
| G38U G76C | 0.228 |
| U37G A51G | 0.0639 |
| G38A G68A | 0.21 |
| U37G C44U | 0.119 |
| U37G G53A | 0.147 |
| U37G C85U | 0.161 |
| U37G U72A | 0 |
| U37G U72C | 0.119 |
| G38A A70G | 0 |
| G38U C85U | 0.269 |

| Variant | self-cleavage |
| --- | --- |
| G38U G55C | 0.19 |
| G38U G55U | 0.21 |
| G38U A78U | 0.0911 |
| G38U A78C | 0.086 |
| G38C C64A | 0.228 |
| G38C G40U | 0.0332 |
| U37C G74U | 0.332 |
| G38C C66G | 0.203 |
| G38C C66A | 0.189 |
| G38A G54U | 0.073 |
| G38A G54C | 0.237 |
| U37G U79A | 0 |
| U37G G76U | 0.104 |
| U37G G76C | 0.142 |
| G38C G73A | 0.185 |
| G38A U79G | 0.151 |
| G38U C62A | 0.317 |
| G38U C62G | 0.0831 |
| U37C G76C | 1.19 |
| U37G A45U | 0 |
| G38A G59U | 0.182 |
| G38A G59C | 0.0256 |
| G38U G50C | 0.225 |
| G38A A77U | 0.0845 |

| Variant | self-cleavage |
| --- | --- |
| G38A A77G | 0.0852 |
| G38C A51C | 0.277 |
| G38C A51U | 0.181 |
| G38A C86G | 0.107 |
| G38U A56C | 0.266 |
| G38A G50C | 0.0831 |
| G38C G54U | 0.185 |
| U37C G55C | 1.1 |
| G38A G74C | 0.161 |
| U37G C75A | 0.156 |
| U37G C75U | 0.0594 |
| G38U G54C | 0.4 |
| G38A C63G | 0.0811 |
| G38A C63A | 0.0978 |
| U37G A56U | 0.0723 |
| U37G A56C | 0 |
| G38U G39C | 0 |
| U37G C49A | 0.0573 |
| U37G C49U | 0.268 |
| U37G C49G | 0.196 |
| U37G A70C | 0.312 |
| U37G G54A | 0.0755 |
| G38C A87C | 0.26 |
| G38U C58U | 0.295 |

| Variant | self-cleavage |
| --- | --- |
| G38U G74A | 0.0248 |
| G38C A78C | 0 |
| G38C C57U | 0.282 |
| G38C C41G | 0.406 |
| U37C G52C | 0.856 |
| U37C U47G | 0.8 |
| U37C U47C | 0.791 |
| G38U A42C | 0.0941 |
| U37G G39C | 0.185 |
| U37C G50A | 1.01 |
| U37C G50C | 1.07 |
| G38U C86A | 0.297 |
| G38U C61A | 0.248 |
| G38U G40C | 0.0923 |
| U37C G59A | 1.1 |
| G38U C44U | 0.126 |
| U37G C48U | 0 |
| G38U C84G | 0.115 |
| G38C G82U | 0.162 |
| G38C G82C | 0.222 |
| G38C U60C | 0.231 |
| G38C U60A | 0.38 |
| G38C C84G | 0.0489 |
| G38A C41G | 0.291 |

| Variant | self-cleavage |
| --- | --- |
| G38C U69C | 0.18 |
| G38U A87G | 0.16 |
| G38C U46C | 0.0923 |
| G38C U46G | 0.095 |
| G38C U47A | 0.249 |
| G38A A43G | 0.155 |
| U37G G40U | 0.203 |
| U37G C86U | 0.249 |
| U37G C86G | 0.111 |
| U37G G59C | 0.192 |
| U37G U65G | 0.0573 |
| G38A G52C | 0.0692 |
| G38A G52A | 0.173 |
| G38C G59C | 0.266 |
| G38A C44U | 0.136 |
| G38A C44A | 0.0678 |
| G38C C86G | 0.217 |
| G38U A51U | 0.308 |
| G38A C64G | 0.142 |
| U37C U60G | 0.906 |
| G38A A45U | 0.107 |
| G38A A45G | 0.155 |
| G38A A87U | 0.121 |
| G38A C61A | 0.105 |

| Variant | self-cleavage |
| --- | --- |
| U37C G53A | 1.04 |
| U37C G53C | 1.2 |
| U37G C84G | 0 |
| G38A G81A | 0.227 |
| U37G C57A | 0.0978 |
| G38U A45C | 0.181 |
| U37G U60A | 0.0504 |
| G38U A83G | 0.0866 |
| G38U C75A | 0.208 |
| G38A U60A | 0.117 |
| G38U G67A | 0.237 |
| G38U G67U | 0.166 |
| U37C U46A | 0.458 |
| G38U A70U | 0.277 |
| G38C G81U | 0.0779 |
| G38C G81C | 0.0354 |
| G38A A71C | 0.032 |
| G38A A71G | 0.177 |
| U37C G80U | 0.224 |
| G38C C58U | 0.408 |
| G38U A43C | 0.0811 |
| U37G G74U | 0.213 |
| U37G G81U | 0.0489 |
| U37G G81C | 0 |

| Variant | self-cleavage |
| --- | --- |
| G38A G73C | 0.13 |
| G38A G73U | 0.0978 |
| G38A G82C | 0.262 |
| G38A G82A | 0.0482 |
| G38C G74A | 0.0936 |
| G38A U72C | 0.108 |
| U37G C62A | 0.0594 |
| G38A G55C | 0.218 |
| G38C C44A | 0.0354 |
| U37G G52A | 0.106 |
| U37G G52C | 0.178 |
| U37G C64G | 0.0437 |
| U37G C64A | 0.122 |
| G38A A56U | 0.218 |
| G38A A56C | 0.13 |
| G38A C49A | 0.172 |
| G38A C49G | 0.151 |
| G38U A71G | 0.166 |
| G38U A71U | 0.222 |
| G38A A51G | 0.141 |
| G38U C66G | 0.0764 |
| G38A U46A | 0 |
| G38A U46G | 0.111 |
